Measured values from patent US8455615B2, “Methods and compositions for prostate cancer immunotherapy” (Beth Israel Deaconess Medical Center, priority 2008, dated 2013).

How the values were obtained:
HLA-A2.1 [1] = biological target: T1, HLA-A2.1 (Homo sapiens, UniProt P04439, D140Y/D185E/D98H/E176V/E277Q/G131W/G231S/I119V/I121R/I166T/I218V/L300P/L318F/N151K/N90K/P208A/P217A/Q86G/Q94H/R138H/R169H/T345S); test: Peptide-HLA-A2.1 dissociation rate on T2 cells with Brefeldin A (SIM2 peptides); format: cell-based; conditions: 50 μg/ml peptide, loss of A2.1 expression over time
T1 construct: stabilize MHC class I molecules from the T2 cell line; endogenous in cells; host or cells: T2 cells
Description: T2 cells were incubated overnight with 50 μg/ml of each candidate peptide at 37° C. in serum-free Iscove's Modified Dulbecco's Medium (IMDM). Cells were then incubated with Brefeldin A (Sigma, St. Louis, Mo.) at 10 μg/ml for 1 hour, washed, and incubated at 37° C. for 0, 2, 4 or 6 hours in the presence of Brefeldin A (50 ng/ml). Cells were then stained with BB7.2 mAb. For each time point, peptide-induced HLA-A2.1 expression was calculated as the difference of the mean fluorescence of peptide-loaded T2 cells and mean fluorescence of negative peptide-loaded T2 cells. The rate of dissociation is reflected by the loss of A2.1 expression over time.

transgenic HHD mice = test: Immunization of HHD mice with SIM2 peptides, IFN-γ ELISPOT on splenocytes; format: in vivo, mouse; conditions: male HHD mice, s.c. peptide in IFA with HBVcore128-140 helper epitope, 10-12 days; P<0.01 for SIM2(87), P<0.001 for other epitopes
Description: These nine SIM2 peptides were then tested for their capacity to elicit in vivo CTL responses in transgenic HHD mice. Ten to 12-week old male HHD mice were injected subcutaneously at the basis of the tail with […] of each candidate peptide emulsified in 50 μl of Incomplete Freund's Adjuvant (IFA) and 50 μl PBS in the presence of 150 μg of the I-A^b restricted HBVcore128-140 T helper epitope ([…]; SEQ ID NO: 88). Ten to twelve days post-immunization, spleens were harvested and splenocytes tested for peptide-induced specific release of IFN-γ by ELISPOT. To perform the ELISPOT assays, 96-well Millipore IP plates were coated with 100 μl/well mouse IFN-γ specific capture mAb (AN18, Mabtech Inc., Mariemont, Ohio) at a concentration of 10 μg/ml in PBS overnight at 4° C. Wells were washed with PBS and saturated with RPMI/10% FCS for 1 hour at 37° C. A total of 2.5×10^5 splenocytes were seeded in each well in four replicates and 5×10^4 peptide-loaded (10 μg peptide/ml, for 2 hours at 37° C.) splenocytes pretreated with 50 μg/ml Mitomycin C for 1 hour were added to each well. Plates were incubated for 1-2 days at 37° C. in 5% CO2, washed 5 times with PBS, and then incubated with 1 μg/ml of biotinylated rat anti-mouse IFN-γ mAb (R4-6A2, Mabtech Inc.) for 24 hours at 4° C. or at room temperature for 2 hours. The wells were washed, and incubated with 100 μl of diluted alkaline phosphatase-conjugated streptavidin for 1 hour at room temperature. Spots were developed by adding […] substrates (5-bromo-4,3-indolyl phosphate and nitroblue tetrazolium) and counted using the ELRO4 AID ELISPOT Reader System (Autoimmun Diagnostika GmbH, Straf3berg, Germany).

HLA-A2.1 [2] = biological target: T1, HLA-A2.1; test: MHC stabilization assay on T2 cells (SIM2 peptides); format: cell-based; conditions: 50 μg peptide/250×10^3 cells/ml overnight at 37° C., BB7.2 mAb, flow cytometry
Description: Epitope candidates were evaluated for binding to HLA-A2.1 using an MHC stabilization assay. The assay is based on the ability of suitable peptides to stabilize MHC class I molecules from the T2 cell line. T2 cells lack a functional transporter associated with antigen presentation (TAP) and as a result accumulate empty, unstable class I molecules on the cell surface. These molecules on the cell surface dissociate rapidly unless they are stabilized by the addition of an appropriate binding peptide. In this assay, the flu M1 HLA-A*0201-binding peptide was used as a reference.
Briefly, T2 cells were cultured for 6 hours in serum-free IMDM (ATCC) prior to the addition of candidate peptides at a concentration of 50 μg/250×10^3 cells/ml and incubated overnight at 37° C. Cells were washed, and surface HLA-A2.1 molecules were stained with FITC mouse anti-human HLA-A2 mAb (clone BB7.2, Mouse IgG2b κ, BD Pharmingen) for 1 hour at 4° C. Cells were then washed three times with PBS and analyzed by flow cytometry. A negative control peptide (NEG, see FIG. 6A) and the flu matrix peptide M1 binder peptide (M1, see FIG. 6A) served as controls. The relative binding affinity of a given peptide was calculated as MFI(peptide)/MFI(negative peptide). Only relative binding affinities of 1.5 or higher were considered for further testing.

| Substance | peptide-HLA dissociation rate (weak or strong stabilizing epitope) (HLA-A2.1 [1]) | peptide-specific IFN-γ release by splenocytes (ELISPOT), immunogenicity (transgenic HHD mice) | binding to / stabilization of HLA-A2.1 molecules (HLA-A2.1 [2]) |
| --- | --- | --- | --- |
| epitope 84: SIM2 peptide able to stabilize HLA-A2.1 molecules, weak stabilizing epitope; sequence not printed (LLQTLDGFV) | weak stabilizing |  |  |
| YQIVGLVAV (listed as Homo sapiens) [SIM2(205)] | strong stabilizing | higher numbers of splenocytes to release IFN-γ |  |
| SIM2(25): SIM2 peptide that binds tightly to A2.1 but was not immunogenic; sequence not printed (KLLPLPSAI) |  | not immunogenic | bind tightly |
| TLDGFVFVV (listed as Homo sapiens) [SIM2(87)] | strong stabilizing | higher numbers of splenocytes to release IFN-γ |  |
| SIM2(199): SIM2 peptide able to stabilize HLA-A2.1 molecules, not immunogenic; sequence not printed (SLYDSCYQI) | weak stabilizing | not immunogenic | bind tightly |
| KLIFLDSRV (listed as Homo sapiens) [SIM2(241)] | strong stabilizing | higher numbers of splenocytes to release IFN-γ |  |
| FLDSRVTEV (listed as Homo sapiens) [SIM2(244)] | strong stabilizing | higher numbers of splenocytes to release IFN-γ |  |
| SLDLKLIFL (listed as Homo sapiens) [SIM2(237)] | weak stabilizing | higher numbers of splenocytes to release IFN-γ |  |
| epitope 430: SIM2 peptide able to stabilize HLA-A2.1 molecules, weak stabilizing epitope; sequence not printed (LLYTPSYSL) | weak stabilizing |  |  |
